In the supplement of paper PMC10126150:
± gives the standard deviation of the averaged measurements.

System: ATP
Assay: switch fluorescence ratio, 500 uM ATP over buffer (Cy3 cluster intensity, sum of 5 cycles each) (fold (ratio)); higher = stronger signal-on switching upon ATP binding; sequences stand for … in TCGTCGGCAGCGTCAGATGTGTATAAGAGACAGTTTTTTTTTTTTTTTTTTTTTTTTT…TC
Settings: aptamer strand: ATP DNA aptamer (quencher-CACCTGGGGGAGTATTGCGGAGGAAGG + anchor), 100 nM annealed; ATP concentration: 500 uM
How it was run: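 Cy3-labelled switching-strand clusters on a modified Illumina MiSeq flow-cell were annealed to 100 nM quencher-labelled ATP aptamer, imaged in selection buffer, then imaged after 15 min with 500 uM ATP at 22 °C. Five buffer/ATP cycles ran, with NaOH stripping and re-annealing between them. The fluorescence ratio is summed target-cycle over summed buffer-cycle Cy3 intensity per cluster, averaged per switch-domain sequence. Clusters outside 100-1000 RFU were excluded.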
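Further: ATP exposure 15 min at 22 °C before imaging.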

Sequence	switch fluorescence ratio
TTTCGTTTTC	1.08 ± 0.1
TTTCGTTTTG	0.998 ± 0.016
TTTCGTTTTT	0.991 ± 0.038
TTTCTAATAT	1 ± 0.014
TTTCTACGCG	1.01 ± 0.034
TTTCTAGGTC	1.015 ± 0.0048
TTTCTAGTGA	0.991 ± 0.047
TTTCTATGGG	1.03 ± 0.033
TTTCTCAGTA	1.03 ± 0.041
TTTCTCAGTC	1 ± 0.039
TTTCTCCCTT	1.19 ± 0.13
TTTCTCCGTT	1.44 ± 0.55
TTTCTCGAAT	1 ± 0.029
TTTCTCGTCG	1 ± 0.014
TTTCTCGTCT	0.988 ± 0.011
TTTCTCGTTC	1.15 ± 0.21
TTTCTCTGGT	0.993 ± 0.045
TTTCTGGCTG	1.025 ± 0.0043
TTTCTGTGAT	1.004 ± 0.003
TTTCTGTTTG	1.01 ± 0.05
TTTCTTGGGG	0.979 ± 0.018
TTTCTTGTAT	1.02 ± 0.016
TTTCTTGTCA	0.996 ± 0.059
TTTCTTTAAG	0.985 ± 0.04
TTTCTTTCGT	1.12 ± 0.16
TTTGAAAATG	1.01 ± 0.035

Sequence	switch fluorescence ratio
TTTGAAAGGA	1.01 ± 0.032
TTTGAACGTG	0.969 ± 0.017
TTTGAACTTT	0.991 ± 0.033
TTTGAAGAAA	1.06 ± 0.033
TTTGAAGAGT	1.04 ± 0.017
TTTGAAGGAC	0.992 ± 0.044
TTTGAAGGGA	0.996 ± 0.042
TTTGAAGTGT	0.997 ± 0.02
TTTGAATCG	1.01 ± 0.021
TTTGAATTCA	1.19 ± 0.22
TTTGACAGTG	0.966 ± 0.071
TTTGACCAGG	1.02 ± 0.045
TTTGACCGTT	0.988 ± 0.035
TTTGACGG	0.972 ± 0.023
TTTGACGGAA	1.27 ± 0.28
TTTGACGTTT	1.02 ± 0.059
TTTGACTGGT	0.984 ± 0.027
TTTGACTTGA	0.984 ± 0.048
TTTGAGAAGA	1.02 ± 0.012
TTTGAGACAG	0.994 ± 0.026
TTTGAGAGTA	0.96 ± 0.028
TTTGAGCATT	1.04 ± 0.043
TTTGAGCCCC	1.04 ± 0.1
TTTGAGGCAT	1.71 ± 1.2
TTTGAGTCAG	0.994 ± 0.035
TTTGAGTCTT	1 ± 0.039

Sequence	switch fluorescence ratio
TTTGATACCC	0.991 ± 0.064
TTTGATACTC	1.15 ± 0.091
TTTGATACTG	1.06 ± 0.11
TTTGATAGTC	0.966 ± 0.07
TTTGATATGT	0.996 ± 0.039
TTTGATCTT	0.974 ± 0.03
TTTGATGCAG	0.993 ± 0.032
TTTGATGTGT	0.997 ± 0.032
TTTGCAATGT	1.29 ± 0.1
TTTGCAGCTT	1.49 ± 0.87
TTTGCATGCC	1.05 ± 0.085
TTTGCATTGT	1.03 ± 0.035
TTTGCCCCGG	1.12 ± 0.12
TTTGCCGGAG	1.08 ± 0.065
TTTGCCTCCG	2.15 ± 1.7
TTTGCCTCGG	0.984 ± 0.031
TTTGCGG	1.009 ± 0.0082
TTTGCGGGTG	1.6 ± 0.91
TTTGCGTTTT	1.01 ± 0.025
TTTGCTGGGA	0.9812 ± 0.0098
TTTGCTGGTT	1.02 ± 0.071
TTTGCTTAAC	1.07 ± 0.13
TTTGGAAA	1.01 ± 0.033
TTTGGAAATG	1.0077 ± 0.00015
TTTGGAAGGG	1 ± 0.026
TTTGGACCGA	1.03 ± 0.016

Sequence	switch fluorescence ratio
TTTGGACGCT	1.04 ± 0.038
TTTGGAGAAT	1.02 ± 0.025
TTTGGAGAGA	1.001 ± 0.01
TTTGGAGATG	1.02 ± 0.023
TTTGGAGCTT	4.01 ± 2.7
TTTGGAGGAG	0.997 ± 0.048
TTTGGAGTCT	0.982 ± 0.031
TTTGGAGTTG	0.987 ± 0.064
TTTGGATAGA	0.998 ± 0.025
TTTGGATCCT	1.02 ± 0.019
TTTGGATTCC	0.998 ± 0.034
TTTGGCCGCT	0.985 ± 0.011
TTTGGCGAGT	1.01 ± 0.021
TTTGGCGCGA	1.43 ± 0.58
TTTGGCTAAG	0.976 ± 0.027
TTTGGCTGAG	1.004 ± 0.009
TTTGGCTTCG	1.042 ± 0.0038
TTTGGCTTCT	1.04 ± 0.073
TTTGGCTTTA	0.977 ± 0.017
TTTGGGACAT	1.01 ± 0.025
TTTGGGAGAT	0.951 ± 0.023
TTTGGGATAG	1.01 ± 0.049
TTTGGGATCA	0.9846 ± 0.0073
TTTGGGATTC	0.979 ± 0.028
TTTGGGCACG	1.05 ± 0.017
TTTGGGCAGT	1 ± 0.017

Sequence	switch fluorescence ratio
TTTGGGCATT	1.04 ± 0.035
TTTGGGCCTG	1.001 ± 0.0022
TTTGGGCTGC	1.28 ± 0.41
TTTGGGCTGG	1.01 ± 0.06
TTTGGGGAAC	1.02 ± 0.035
TTTGGGGATG	1 ± 0.033
TTTGGGGCCC	1.03 ± 0.041
TTTGGGGCCT	1.06 ± 0.15
TTTGGGGCTG	1.04 ± 0.11
TTTGGGGGAC	0.984 ± 0.05
TTTGGGGGCT	1.01 ± 0.04
TTTGGGGTT	1.02 ± 0.018
TTTGGGGTTA	0.996 ± 0.034
TTTGGGTCTG	0.992 ± 0.026
TTTGGGTGGC	1.03 ± 0.036
TTTGGGTTGA	1.03 ± 0.017
TTTGGTACAC	1.01 ± 0.021
TTTGGTCTCA	1 ± 0.02
TTTGGTGGTC	0.971 ± 0.022
TTTGGTTAC	1.05 ± 0.023
TTTGGTTACA	1.01 ± 0.04
TTTGGTTCGC	0.971 ± 0.037
TTTGGTTGAT	0.9967 ± 0.0087
TTTGGTTGCC	1.05 ± 0.085
TTTGGTTTTT	0.999 ± 0.031
TTTGTAAATA	1.008 ± 0.0069

Sequence	switch fluorescence ratio
TTTGTAAGAA	1.009 ± 0.006
TTTGTACCCT	1.064 ± 0.0021
TTTGTAGGGG	0.981 ± 0.016
TTTGTATCAT	1.017 ± 0.0076
TTTGTATGTT	0.991 ± 0.051
TTTGTATTCA	1.01 ± 0.06
TTTGTCAGGG	0.992 ± 0.062
TTTGTCCAGT	0.991 ± 0.041
TTTGTCGTCG	1.004 ± 0.01
TTTGTCTATA	1 ± 0.017
TTTGTCTGGA	0.991 ± 0.032
TTTGTGACTA	1.01 ± 0.049
TTTGTGCCTC	0.9528 ± 0.0093
TTTGTGGATT	1.06 ± 0.069
TTTGTGTATG	0.9701 ± 0.0032
TTTGTGTTGG	0.993 ± 0.027
TTTGTTAGTG	0.972 ± 0.021
TTTGTTCTGT	1.01 ± 0.018
TTTGTTGATT	0.973 ± 0.022
TTTGTTGCCA	0.988 ± 0.0019
TTTGTTGCTC	1 ± 0.03
TTTGTTGGGA	1.02 ± 0.013
TTTGTTGTAA	1.01 ± 0.034
